The target in assay [1] is T1, Biotinylated human IL13Rα2 (hIL13Rα2-avi) (human, UniProt Q14627 29-331, biotinylated in vivo on the Avi-tag by co-expressed BirA).
T1 construct: Produced in Sf9 cells; native signal peptide (aa 1-28) exchanged for the gp67 signal peptide; 42.2 kDa; also called human IL13Rα2-avi; Human ILRα2-avi
T1 sequence: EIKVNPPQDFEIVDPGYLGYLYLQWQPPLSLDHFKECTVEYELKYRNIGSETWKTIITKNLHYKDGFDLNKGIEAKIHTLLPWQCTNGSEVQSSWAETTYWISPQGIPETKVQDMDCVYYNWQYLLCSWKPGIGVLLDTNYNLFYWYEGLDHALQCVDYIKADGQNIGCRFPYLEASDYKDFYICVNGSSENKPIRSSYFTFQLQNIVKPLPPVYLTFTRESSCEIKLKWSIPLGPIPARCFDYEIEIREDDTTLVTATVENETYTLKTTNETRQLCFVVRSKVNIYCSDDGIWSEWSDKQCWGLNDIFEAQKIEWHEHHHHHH
Description: ELISA on coated human IL13Ra2, scFv in bacterial supernatant, anti-FLAG-HRP. As for the experimental part:
(§1) Human IL13Rα2-avi (see Example A1), and negative control protein streptavidin were coated into a 384-ELISA well plate at 1 μg/ml in PBS at 4° C. overnight.
(§2) Plates were washed twice with MilliQ water and blocked for 2 h in blocking buffer (phosphate-buffered saline (PBS) supplemented with 0.5% bovine serum albumin (BSA)+0.05% TWEEN 20®). Triple-FLAG-tagged scFv 1E10B9 and mAb47, present in bacterial supernatant, were diluted 1:2, 1:20 and 1:200 in blocking buffer and allowed to bind. An assay control scFv (G-strep-1), specific for streptavidin, was also included. Detection of binding was enabled through an HRP-conjugated anti-FLAG M2 antibody (Sigma-Aldrich #A8592) followed by incubation with 1-step Ultra TMB ELISA substrate (ThermoFisher Scientific #34029). The colorimetric signal development was stopped by adding 1 M sulfuric acid and plates were read at 450 nm. All samples were assayed in duplicates.
On the technique in general: An ELISA detects its analyte on a solid surface through an enzyme-linked reagent.

The target in assay [2] is T2, streptavidin (UniProt P22629 37-163, limits assumed).
T2 construct: Negative control antigen; cognate antigen of G-strep-1 scFv; also called negative control protein streptavidin
T2 sequence (P22629 37-163 limits assumed): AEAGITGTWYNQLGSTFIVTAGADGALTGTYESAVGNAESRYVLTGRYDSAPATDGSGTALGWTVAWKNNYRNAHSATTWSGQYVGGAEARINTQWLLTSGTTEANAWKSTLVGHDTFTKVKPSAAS
The assay can be described thus: ELISA on coated streptavidin, scFv in bacterial supernatant, anti-FLAG-HRP. As for the experimental part:
as §1, §2

Assay [3] addresses T1, Biotinylated human IL13Rα2 …. Description: SPR single cycle kinetics, scFv captured. From the text: (§3) An anti-FLAG M2 antibody (Sigma-Aldrich #F1804), functioning as a capture ligand was immobilized onto all four surfaces of a CM5-S amine sensor chip on a BIACORE® T200 instrument (GE Healthcare) according to manufacturer's recommendations.
In assay [4] the target is T3, Mouse IL13Rα2 Fc chimera (mIL13Rα2-Fc, RnD Systems #539-IR) (mouse, UniProt O88786 22-334).
T3 construct: range 22-334; Bought; produced in NS0 cells; homodimer through Fc fusion; also called mILRα2-Fc; Mouse ILRα2-Fc; Fc part of the bought chimera not given
T3 sequence (looked up): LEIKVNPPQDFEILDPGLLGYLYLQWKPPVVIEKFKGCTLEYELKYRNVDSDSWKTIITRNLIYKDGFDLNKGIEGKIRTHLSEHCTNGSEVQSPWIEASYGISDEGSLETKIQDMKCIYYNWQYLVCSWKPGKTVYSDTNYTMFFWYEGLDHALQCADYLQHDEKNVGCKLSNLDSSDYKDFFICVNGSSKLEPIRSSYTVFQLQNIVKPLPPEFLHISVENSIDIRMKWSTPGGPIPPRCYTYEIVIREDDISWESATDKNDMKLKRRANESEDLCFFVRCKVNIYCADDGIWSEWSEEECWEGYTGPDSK
Description: SPR single cycle kinetics, scFv captured.
Excerpt: as §3

Assay [5] addresses T2, streptavidin. Description: SPR: scFv captured on anti-FLAG M2, streptavidin injected. The protocol:
An anti-FLAG M2 antibody (Sigma-Aldrich #F1804), functioning as a capture ligand, was immobilized onto all four surfaces of a CM5-S amine sensor chip through ECD/NHS chemistry on a BIACORE® T200 instrument (GE Healthcare) according to manufacturer's recommendations.
The surfaces were regenerated with 10 mM glycin-HCl pH 2.1. All experiments were performed at 25° C. in HBS supplemented with 0.05% TWEEN 20®, pH 7.5.
For orientation: SPR reads the build-up and loss of mass on a sensor chip optically.

Assay [6] deals with T4, Human IL13Rα1-Fc (hIL13Rα1-Fc, RnD Systems #146-IR) (human, UniProt P78552 27-342).
T4 construct: Bought; Fc part of the bought chimera not given
T4 sequence (looked up): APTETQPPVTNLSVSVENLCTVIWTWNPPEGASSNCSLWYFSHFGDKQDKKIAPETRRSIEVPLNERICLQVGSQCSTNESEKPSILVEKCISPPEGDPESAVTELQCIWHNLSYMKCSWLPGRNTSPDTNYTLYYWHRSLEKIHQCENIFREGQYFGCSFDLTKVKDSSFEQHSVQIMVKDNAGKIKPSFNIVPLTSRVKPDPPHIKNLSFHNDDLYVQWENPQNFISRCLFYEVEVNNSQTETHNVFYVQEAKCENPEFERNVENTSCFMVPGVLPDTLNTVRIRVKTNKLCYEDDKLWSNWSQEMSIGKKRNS
The assay can be described thus: ELISA, coated hIL13Ra1-Fc, anti-FLAG-HRP. As for the experimental part:
Coating proteins hIL13Rα2-avi (Example A1), hIL13Rα2-Fc (RnD Systems #7147-IR), mIL13Rα2-Fc (RnD Systems #539-IR) and hIL13Rα1-Fc (RnD Systems #146-IR) were diluted to 1 μg/ml in PBS and directly coated into a 384-well ELISA plate. Two negative control proteins, streptavidin and a non-relevant protein, were also coated. Following incubation of plates with coating-proteins overnight at 4° C., plates were washed twice with MilliQ water and blocked for 2 h in blocking buffer (PBS supplemented with 0.5% BSA+0.05% TWEEN 20®). Triple-FLAG-tagged W-ME107 scFv clones present in bacterial supernatant were diluted 1:10 in blocking buffer and allowed to bind. Detection of binding was enabled through an HRP-conjugated anti-FLAG M2 antibody (Sigma-Aldrich #A8592) followed by incubation with 1-step Ultra TMB ELISA substrate (ThermoFisher Scientific #34029). The colorimetric-signal development was stopped by addition of 1 M sulfuric acid and plates were analyzed at […].

The target in assay [7] is T5, Human IL13Rα2 Fc chimera (hIL13Rα2-Fc, RnD Systems #7147-IR) (human, UniProt Q14627 22-342).
T5 construct: Bought; produced in CHO cells; homodimer through Fc fusion; also called hILRα2-Fc; Human ILRα2-Fc; not shown: Fc part (and any linker) of the bought chimera
T5 sequence: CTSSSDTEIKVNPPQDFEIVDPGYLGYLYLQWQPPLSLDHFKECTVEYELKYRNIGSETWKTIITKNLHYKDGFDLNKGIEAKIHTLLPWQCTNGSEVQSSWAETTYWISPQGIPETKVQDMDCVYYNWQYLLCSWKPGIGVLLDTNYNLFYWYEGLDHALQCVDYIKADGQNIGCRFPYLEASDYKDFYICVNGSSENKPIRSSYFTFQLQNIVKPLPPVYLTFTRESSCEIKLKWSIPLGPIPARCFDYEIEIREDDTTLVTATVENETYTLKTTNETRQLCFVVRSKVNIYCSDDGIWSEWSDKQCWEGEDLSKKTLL
The assay can be described thus: SPR single cycle kinetics, scFv captured.
Excerpt: as §3

The record followed here is patent US20230183364A1 (ELICERA THERAPEUTICS, published 2023).

B1: 1E10B9 scFv (scFv)
scFv: QIQLVQSGPELKKPGETVKIYCKASGYSFRDYSVHWVKQAPGKGLKWMGWINTETGEPTYVDEFKGRFAFFLEASANTVYLQISNLKNEDTATYFCDYRFTYWGQGTLVTVSAGGGGSGGGGSGGGGSEIVMTQTPLILSVTIGQPASISCKSSQSVLYSNGKTYLNWLLQRPGQSPKRLIYLVSKLDSGVPDRFTGSGSGTDFTLKISRVEAEDLGVYYCVQGSHFPYTFGGGTKLEIKAAADYKDHDGDYKDHDIDYKDDDDKAAAHHHHHH
notes: also called X-ME107-B9
On to B1, for which the binding result (in assay [1]; with streptavidin [2]) was “no binding (tested: supernatant diluted 1:2)” each time.

B2: W-ME107-27 scFv (scFv, V domains shown)
VH: EVQLLESGGGLVQPGGSLRLSCAASGFTFYGSYMGWVRQAPGKGLEWVSYISGYGGYTYYADSVKGRFTISRDNSKNTLYLQMNSLRAEDTAVYYCARTPYSAYIDYWGQGTLVTVSS
VL: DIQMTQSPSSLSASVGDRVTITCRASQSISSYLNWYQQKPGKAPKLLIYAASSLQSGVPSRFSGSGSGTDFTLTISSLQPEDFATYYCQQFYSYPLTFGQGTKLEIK
notes: Human scFv from SciLifeLib phage libraries
In the case of B2, in assay [3], the Kd (commonly a measure of binding affinity in units of concentration) came out at 3.1 nM; the koff (usually a measure of how fast the partners let go of each other) was determined as 0.00022 s⁻¹; the kon (as a rule, a measure of how fast the partners come together) is 69000 M⁻¹ s⁻¹. In assay [4], the Kd was found to be 2.4 nM, the koff was determined as 0.00019 s⁻¹ and the kon turned out to be 80000 M⁻¹ s⁻¹. The binding result with streptavidin [5] is “no binding (tested: 200 nM)”. Besides, the binding result in assay [6] is given as “no binding (tested: supernatant diluted 1:10)”.

B3: W-ME107-75 scFv (scFv, V domains shown)
VH: EVQLLESGGGLVQPGGSLRLSCAASGFTFYSYGMSWVRQAPGKGLEWVSYISGGGSYTYYADSVKGRFTISRDNSKNTLYLQMNSLRAEDTAVYYCARGSYSHYGAHYLDYWGQGTLVTVSS
VL: DIQMTQSPSSLSASVGDRVTITCRASQSISSYLNWYQQKPGKAPKLLIYAASSLQSGVPSRFSGSGSGTDFTLTISSLQPEDFATYYCQQALSSLPTFGQGTKLEIK
notes: as for B2
As to B3, the figures for the Kd in assay [3], in assay [4] and in assay [7] were 36 nM, 80 nM and 5.4 nM, respectively. Further, the values for the koff in assay [3], in assay [4] and in assay [7] were 0.0079 s⁻¹, 0.0036 s⁻¹ and 0.00026 s⁻¹, respectively. Besides, the on-rate constant (kon) in assay [3] was 220000 M⁻¹ s⁻¹; in assay [4], 45000 M⁻¹ s⁻¹; in assay [7], 48000 M⁻¹ s⁻¹. For the same molecule, the binding result was “no binding (tested: 200 nM)” with streptavidin [5] and “no binding (tested: supernatant diluted 1:10)” in assay [6].

B4: W-ME107-117 scFv (scFv, V domains shown)
VH: EVQLLESGGGLVQPGGSLRLSCAASGFTFSGSYMSWVRQAPGKGLEWVSSIYGSGGYTYYADSVKGRFTISRDNSKNTLYLQMNSLRAEDTAVYYCARYSPFYMDYWGQGTLVTVSS
VL: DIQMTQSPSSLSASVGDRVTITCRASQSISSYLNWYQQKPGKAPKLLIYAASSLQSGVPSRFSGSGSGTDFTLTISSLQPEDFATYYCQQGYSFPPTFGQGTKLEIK
With B4, in assay [3], the Kd was determined as 22 nM, the koff worked out at 0.0033 s⁻¹ and the kon was determined as 150000 M⁻¹ s⁻¹. In addition, in assay [7], the dissociation constant (Kd) came out at 7.8 nM, the koff was 0.00035 s⁻¹ and the kon came to 45000 M⁻¹ s⁻¹.

B5: W-ME107-10 scFv (scFv, V domains shown)
VH: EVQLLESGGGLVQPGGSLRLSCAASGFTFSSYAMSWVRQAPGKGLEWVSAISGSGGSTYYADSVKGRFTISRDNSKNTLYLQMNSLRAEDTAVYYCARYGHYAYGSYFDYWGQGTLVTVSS
VL: DIQMTQSPSSLSASVGDRVTITCRASQSISSYLNWYQQKPGKAPKLLIYAASSLQSGVPSRFSGSGSGTDFTLTISSLQPEDFATYYCQQDYYLFTFGQGTKLEIK
notes: as for B2
On to B5, for which, in assay [3], the affinity, expressed as Kd, was 3.4 nM; the koff came out at 0.00017 s⁻¹; the kon came out at 51000 M⁻¹ s⁻¹. In assay [4], this molecule displayed a Kd of 45 nM, a koff of 0.0018 s⁻¹ and a kon of 40000 M⁻¹ s⁻¹. Further, the binding result with streptavidin [5] was “no binding (tested: 200 nM)”. For the same molecule, in assay [6], the binding result is “no binding (tested: supernatant diluted 1:10)”.
